Measurements from paper PMC2756588.

T1: Abp1, P15891
T1 sequence (P15891 535-592, looked up): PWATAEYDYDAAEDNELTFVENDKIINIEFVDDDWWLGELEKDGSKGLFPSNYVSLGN

T2: Bbc1, P47068
T2 sequence (P47068 1-78, looked up): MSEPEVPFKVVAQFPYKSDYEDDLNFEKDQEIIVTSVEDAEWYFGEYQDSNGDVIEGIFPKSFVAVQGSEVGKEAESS

T3: Boi1, P38041
T3 sequence (P38041 1-86, looked up): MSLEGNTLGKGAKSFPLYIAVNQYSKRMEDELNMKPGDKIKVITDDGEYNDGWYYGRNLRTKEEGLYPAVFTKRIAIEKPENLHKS

T4: Boi2, P39969
T4 sequence (P39969 32-116, looked up): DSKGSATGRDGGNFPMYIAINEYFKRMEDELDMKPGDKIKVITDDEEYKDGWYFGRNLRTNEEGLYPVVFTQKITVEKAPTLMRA

T5: Bud14, P27637
T5 sequence (P27637 247-328, looked up): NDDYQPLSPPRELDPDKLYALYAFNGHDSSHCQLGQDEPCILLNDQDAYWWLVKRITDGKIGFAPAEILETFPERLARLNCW

T6: Bzz1-1, P38822
T6 sequence (P38822 478-572, looked up): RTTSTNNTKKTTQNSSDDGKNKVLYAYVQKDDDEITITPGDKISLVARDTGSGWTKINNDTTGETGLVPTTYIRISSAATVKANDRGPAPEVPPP

T7: Bzz1-2, P38822
T7 sequence (P38822 568-633, looked up): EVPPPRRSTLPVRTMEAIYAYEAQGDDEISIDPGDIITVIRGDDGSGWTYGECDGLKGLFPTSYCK

T8: Cdc25, P04821
T8 sequence (P04821 50-136, looked up): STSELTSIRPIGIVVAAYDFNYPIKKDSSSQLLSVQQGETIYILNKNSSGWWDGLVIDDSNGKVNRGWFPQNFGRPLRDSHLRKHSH

T9: Cyk3, Q07533
T9 sequence (Q07533 1-83, looked up): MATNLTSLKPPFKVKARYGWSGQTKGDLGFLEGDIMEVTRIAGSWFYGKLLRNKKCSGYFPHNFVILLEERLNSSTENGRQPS

T10: Fus1, P11710
T10 sequence (P11710 432-512, looked up): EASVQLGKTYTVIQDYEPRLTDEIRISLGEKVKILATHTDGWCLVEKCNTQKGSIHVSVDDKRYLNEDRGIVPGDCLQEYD

T11: Hof1, Q05080
T11 sequence (Q05080 590-669, looked up): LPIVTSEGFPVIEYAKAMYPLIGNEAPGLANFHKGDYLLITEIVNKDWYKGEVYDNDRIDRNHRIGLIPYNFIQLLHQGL

T12: Hse1, P38753
T12 sequence (P38753 208-285, looked up): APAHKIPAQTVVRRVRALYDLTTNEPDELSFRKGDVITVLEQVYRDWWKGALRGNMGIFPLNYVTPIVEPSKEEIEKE

T13: Lsb1, P53281
T13 sequence (P53281 45-122, looked up): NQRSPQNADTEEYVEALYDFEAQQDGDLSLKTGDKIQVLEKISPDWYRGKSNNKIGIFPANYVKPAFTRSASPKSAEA

T14: Lsb3, P43603
T14 sequence (P43603 385-451, looked up): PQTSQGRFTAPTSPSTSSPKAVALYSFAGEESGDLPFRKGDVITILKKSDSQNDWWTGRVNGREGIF

T15: Lsb4, P32793
T15 sequence (P32793 402-468, looked up): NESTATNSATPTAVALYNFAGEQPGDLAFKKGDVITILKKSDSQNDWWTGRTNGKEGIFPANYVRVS

T16: Myo5, Q04439
T16 sequence (Q04439 1072-1160, looked up): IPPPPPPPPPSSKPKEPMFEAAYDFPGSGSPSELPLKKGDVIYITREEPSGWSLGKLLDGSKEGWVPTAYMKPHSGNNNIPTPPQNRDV

T17: Nbp2, Q12163
T17 sequence (Q12163 103-180, looked up): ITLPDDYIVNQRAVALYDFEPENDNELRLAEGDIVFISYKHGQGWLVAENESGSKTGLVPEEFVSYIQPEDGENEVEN

T18: Pex13, P80667
T18 sequence (P80667 295-386, looked up): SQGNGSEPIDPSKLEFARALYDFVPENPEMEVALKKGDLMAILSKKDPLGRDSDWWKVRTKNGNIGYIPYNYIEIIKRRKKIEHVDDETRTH

T19: Pin3, Q06449
T19 sequence (Q06449 53-122, looked up): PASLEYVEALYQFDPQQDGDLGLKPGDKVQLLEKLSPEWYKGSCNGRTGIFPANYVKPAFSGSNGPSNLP

T20: Sla1-2, P32790
T20 sequence (P32790 60-140, looked up): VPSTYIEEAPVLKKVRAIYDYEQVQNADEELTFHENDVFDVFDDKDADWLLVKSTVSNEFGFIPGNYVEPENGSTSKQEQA

T21: Sla1-3, P32790
T21 sequence (P32790 344-424, looked up): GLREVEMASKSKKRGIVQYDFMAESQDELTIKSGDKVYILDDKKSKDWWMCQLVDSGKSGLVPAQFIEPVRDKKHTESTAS


Experiments:
Test in all cases: SPOT array
[1] = molecular target: T1, Abp1, P15891; details: median of control spots 935
[2] = molecular target: T2, Bbc1, P47068; details: median of control spots 796
[3] = molecular target: Bem1-1, P29366; details: median of control spots 4282
[4] = molecular target: Bem1-2, P29366; details: median of control spots 4347
[5] = molecular target: T3, Boi1, P38041; details: median of control spots 1162
[6] = molecular target: T4, Boi2, P39969; details: median of control spots 1161
[7] = molecular target: T5, Bud14, P27637; details: median of control spots 956
[8] = molecular target: T6, Bzz1-1, P38822; details: median of control spots 4446
[9] = molecular target: T7, Bzz1-2, P38822; details: median of control spots 4538
[10] = molecular target: T8, Cdc25, P04821; details: median of control spots 969
[11] = molecular target: T9, Cyk3, Q07533; details: median of control spots 1451
[12] = molecular target: T10, Fus1, P11710; details: median of control spots 1200
[13] = molecular target: GST; details: median of control spots 978
[14] = molecular target: T11, Hof1, Q05080; details: median of control spots 4086
[15] = molecular target: T12, Hse1, P38753; details: median of control spots 1727
[16] = molecular target: T13, Lsb1, P53281; details: median of control spots 388
[17] = molecular target: T14, Lsb3, P43603; details: median of control spots 406
[18] = molecular target: T15, Lsb4, P32793; details: median of control spots 397
[19] = molecular target: Myo3, P36006; details: median of control spots 468
[20] = molecular target: T16, Myo5, Q04439; details: median of control spots 471
[21] = molecular target: T17, Nbp2, Q12163; details: median of control spots 357
[22] = molecular target: T18, Pex13, P80667; details: median of control spots 1341
[23] = molecular target: T19, Pin3, Q06449; details: median of control spots 2171
[24] = molecular target: Rvs167, P39743; details: median of control spots 2707
[25] = molecular target: Sho1, P40073; details: median of control spots 1148
[26] = molecular target: T20, Sla1-2, P32790; details: median of control spots 712
[27] = molecular target: T21, Sla1-3, P32790; details: median of control spots 5475

Chain of Rvs167, P39743 (P39743 419-482): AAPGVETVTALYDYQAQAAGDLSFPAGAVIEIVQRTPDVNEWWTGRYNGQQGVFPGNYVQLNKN
Chain of Bem1-2, P29366 (P29366 139-227): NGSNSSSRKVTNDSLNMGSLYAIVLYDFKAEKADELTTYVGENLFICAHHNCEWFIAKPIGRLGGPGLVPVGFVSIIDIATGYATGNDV
Chain of Bem1-1, P29366 (P29366 55-141): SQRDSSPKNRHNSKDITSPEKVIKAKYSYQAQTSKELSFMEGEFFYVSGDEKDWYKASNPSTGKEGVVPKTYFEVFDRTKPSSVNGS
Chain of Sho1, P40073 (P40073 287-367): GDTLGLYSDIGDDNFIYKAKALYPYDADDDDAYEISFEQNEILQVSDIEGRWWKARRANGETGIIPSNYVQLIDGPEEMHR

Row | SPOT intensity [1] | SPOT intensity [2] | SPOT intensity [3] | SPOT intensity [4] | SPOT intensity [5] | SPOT intensity [6] | SPOT intensity [7] | SPOT intensity [8] | SPOT intensity [9] | SPOT intensity [10] | SPOT intensity [11] | SPOT intensity [12] | SPOT intensity [13] | SPOT intensity [14] | SPOT intensity [15] | SPOT intensity [16] | SPOT intensity [17] | SPOT intensity [18] | SPOT intensity [19] | SPOT intensity [20] | Binder | further results
1 | 10 | 0 | 0 | 0 | 0 | 0 | 0 | 1 | 0 | 0 | 0 | 0 | 0 | 0 | 0 | 880 | 0 | 0 | 0 | 0 | VKPRQLFPIPLNKVD | SPOT intensity [21]: 0; SPOT intensity [22]: 0; SPOT intensity [23]: 5; SPOT intensity [24]: 0; SPOT intensity [25]: 8; SPOT intensity [26]: 0; SPOT intensity [27]: 0
2 | 133 | 226 | 0 | 2 | 0 | 0 | 0 | 0 | 0 | 2 | 0 | 0 | 0 | 0 | 9 | 379 | 41 | 57 | 3 | 0 | HPRFVSPRIPSRIVK | SPOT intensity [21]: 2; SPOT intensity [22]: 21; SPOT intensity [23]: 86; SPOT intensity [24]: 4; SPOT intensity [25]: 40; SPOT intensity [26]: 0; SPOT intensity [27]: 15
3 | 0 | 43 | 0 | 0 | 0 | 0 | 0 | 0 | 0 | 0 | 0 | 0 | 0 | 23 | 1 | 174 | 493 | 281 | 0 | 0 | DGNEEKPLLPTRPNK | SPOT intensity [21]: 0; SPOT intensity [22]: 81; SPOT intensity [23]: 0; SPOT intensity [24]: 263; SPOT intensity [25]: 0; SPOT intensity [26]: 0; SPOT intensity [27]: 5
4 | 0 | 0 | 0 | 0 | 1 | 0 | 0 | 2 | 0 | 0 | 0 | 0 | 0 | 0 | 0 | 705 | 0 | 0 | 0 | 1 | TYNRTAFQIPGDQSI | SPOT intensity [21]: 0; SPOT intensity [22]: 0; SPOT intensity [23]: 45; SPOT intensity [24]: 0; SPOT intensity [25]: 0; SPOT intensity [26]: 0; SPOT intensity [27]: 1
5 | 67 | 38 | 0 | 5 | 1 | 0 | 11 | 1 | 0 | 0 | 1 | 54 | 1 | 8 | 16 | 355 | 5 | 2 | 6 | 6 | KWVRRPKLMTPLTFS | SPOT intensity [21]: 3; SPOT intensity [22]: 6; SPOT intensity [23]: 53; SPOT intensity [24]: 0; SPOT intensity [25]: 19; SPOT intensity [26]: 0; SPOT intensity [27]: 44
6 | 64 | 18 | 1 | 0 | 0 | 1 | 3 | 1 | 0 | 0 | 1 | 2 | 2 | 2 | 1 | 888 | 1 | 0 | 1 | 4 | YSRKKLPVVLSKMTL | SPOT intensity [21]: 0; SPOT intensity [22]: 8; SPOT intensity [23]: 20; SPOT intensity [24]: 2; SPOT intensity [25]: 47; SPOT intensity [26]: 4; SPOT intensity [27]: 12
